Legend:
Gib11 sRGN = target: T1, Gib11 sRGN (synthetic (Staphylococcus Cas9 chimera)); experiment: FP; cleavage; 5 mM MgCl2, 37 C; PAM GGGG on substrate; mismatch values only in figure
T1 chain: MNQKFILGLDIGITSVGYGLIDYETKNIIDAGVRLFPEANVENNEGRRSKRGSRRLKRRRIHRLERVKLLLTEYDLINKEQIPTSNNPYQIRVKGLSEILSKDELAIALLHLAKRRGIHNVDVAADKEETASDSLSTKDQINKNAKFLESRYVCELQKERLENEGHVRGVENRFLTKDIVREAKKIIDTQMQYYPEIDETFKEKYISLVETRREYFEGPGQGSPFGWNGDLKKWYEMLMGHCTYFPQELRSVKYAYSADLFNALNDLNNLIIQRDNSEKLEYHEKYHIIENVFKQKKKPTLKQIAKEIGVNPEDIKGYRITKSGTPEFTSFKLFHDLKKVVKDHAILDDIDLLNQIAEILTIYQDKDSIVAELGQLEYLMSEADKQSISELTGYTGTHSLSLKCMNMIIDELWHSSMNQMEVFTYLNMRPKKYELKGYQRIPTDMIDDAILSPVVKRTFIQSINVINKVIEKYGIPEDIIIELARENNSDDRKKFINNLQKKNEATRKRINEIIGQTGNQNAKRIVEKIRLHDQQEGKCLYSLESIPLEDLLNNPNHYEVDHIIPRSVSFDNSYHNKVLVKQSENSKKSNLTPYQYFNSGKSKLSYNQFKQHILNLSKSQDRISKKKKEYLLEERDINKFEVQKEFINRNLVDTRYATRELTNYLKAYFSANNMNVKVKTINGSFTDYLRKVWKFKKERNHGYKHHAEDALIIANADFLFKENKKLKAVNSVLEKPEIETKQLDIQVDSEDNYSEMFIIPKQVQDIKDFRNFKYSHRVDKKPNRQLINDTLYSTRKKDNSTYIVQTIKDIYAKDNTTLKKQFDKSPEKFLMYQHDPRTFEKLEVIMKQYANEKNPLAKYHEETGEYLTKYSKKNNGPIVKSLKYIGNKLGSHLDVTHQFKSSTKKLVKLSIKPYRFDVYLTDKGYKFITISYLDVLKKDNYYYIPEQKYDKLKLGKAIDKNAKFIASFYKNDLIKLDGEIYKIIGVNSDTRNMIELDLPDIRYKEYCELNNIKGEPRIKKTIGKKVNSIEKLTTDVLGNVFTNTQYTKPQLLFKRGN
Description: (§1) Oligonucleotide duplexes were prepared in 10 mM Tris (pH 7.8) 50 mM NaCl as 10 μM solutions (from 100 μM stocks) and annealed at 95° C. for 5 minutes then slowly cooled down in thermo cycler (6° C. per minute). The stocks were subsequently diluted in 10 mM Tris (pH 7.8), 50 mM NaCl, and 0.05% Pluronic. 20 μl of each oligonucleotide (20 nM) was immobilized on streptavidin coated plates, washed twice after 10 minutes and then incubated with a 20 μL sample for a kinetics of 60 minutes (excitation wavelength: 635 nm; emission wavelength: 670 nm). Prior to the cleavage the reaction RNP was formed. RNP was assembled by mixing 12.03 μl of the respective sRGN protein (1.21 μg/μl) in 3200 μl 1×PBS+5 mM MgCl₂ with and without sgRNA (SEQ ID NO: 128; 60 nM final concentration), RNPs were incubated 5 min at 37° C. prior to the reaction. 20 μl RNP was added to each well and the polarization was measured for 60 minutes at 37° C.
(§2) The cleavage kinetics were analyzed by calculating the initial slope of the oligonucleotide cleavage reaction. The slopes were calculated for each of the 61 substrates and normalized to the value of the on-target substrate (defined as 1). The normalized cleavage values for all 60 off-target substrates where then grouped according to their position. […]

E2 sRGN = target: T2, E2 sRGN (synthetic (Staphylococcus Cas9 chimera)); experiment: FP; cleavage; specificity profile comparable to SluCas9
T2 chain: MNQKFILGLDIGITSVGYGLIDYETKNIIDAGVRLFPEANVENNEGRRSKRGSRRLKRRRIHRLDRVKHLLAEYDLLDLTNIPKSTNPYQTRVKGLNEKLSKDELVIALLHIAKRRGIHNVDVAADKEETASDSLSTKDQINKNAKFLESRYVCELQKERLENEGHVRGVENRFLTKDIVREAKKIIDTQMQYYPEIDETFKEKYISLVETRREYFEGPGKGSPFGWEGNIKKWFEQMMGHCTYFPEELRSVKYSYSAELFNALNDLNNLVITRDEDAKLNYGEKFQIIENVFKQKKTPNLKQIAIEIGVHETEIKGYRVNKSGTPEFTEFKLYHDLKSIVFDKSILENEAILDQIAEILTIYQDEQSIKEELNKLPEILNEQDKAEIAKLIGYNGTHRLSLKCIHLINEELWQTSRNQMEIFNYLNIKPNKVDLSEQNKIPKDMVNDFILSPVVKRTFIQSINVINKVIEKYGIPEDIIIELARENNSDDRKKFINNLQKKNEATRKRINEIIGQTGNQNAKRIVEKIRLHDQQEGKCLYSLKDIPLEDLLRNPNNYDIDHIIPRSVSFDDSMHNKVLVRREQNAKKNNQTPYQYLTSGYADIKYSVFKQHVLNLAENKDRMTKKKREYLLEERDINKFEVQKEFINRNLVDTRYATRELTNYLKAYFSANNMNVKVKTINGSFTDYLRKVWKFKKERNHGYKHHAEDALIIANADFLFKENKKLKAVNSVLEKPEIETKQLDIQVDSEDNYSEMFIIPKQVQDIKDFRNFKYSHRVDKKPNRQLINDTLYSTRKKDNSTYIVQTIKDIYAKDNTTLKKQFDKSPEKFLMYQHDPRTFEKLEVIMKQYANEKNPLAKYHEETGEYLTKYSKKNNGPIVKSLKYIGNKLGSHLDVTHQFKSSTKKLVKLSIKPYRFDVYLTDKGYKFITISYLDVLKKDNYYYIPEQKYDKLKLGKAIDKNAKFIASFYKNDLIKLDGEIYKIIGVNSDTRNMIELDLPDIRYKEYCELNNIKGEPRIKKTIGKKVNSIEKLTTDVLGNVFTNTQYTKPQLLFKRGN
Description: as §1, §2

F8 sRGN = target: T3, F8 sRGN (synthetic (Staphylococcus Cas9 chimera)); experiment: FP; cleavage; 5 mM MgCl2, 37 C
T3 chain: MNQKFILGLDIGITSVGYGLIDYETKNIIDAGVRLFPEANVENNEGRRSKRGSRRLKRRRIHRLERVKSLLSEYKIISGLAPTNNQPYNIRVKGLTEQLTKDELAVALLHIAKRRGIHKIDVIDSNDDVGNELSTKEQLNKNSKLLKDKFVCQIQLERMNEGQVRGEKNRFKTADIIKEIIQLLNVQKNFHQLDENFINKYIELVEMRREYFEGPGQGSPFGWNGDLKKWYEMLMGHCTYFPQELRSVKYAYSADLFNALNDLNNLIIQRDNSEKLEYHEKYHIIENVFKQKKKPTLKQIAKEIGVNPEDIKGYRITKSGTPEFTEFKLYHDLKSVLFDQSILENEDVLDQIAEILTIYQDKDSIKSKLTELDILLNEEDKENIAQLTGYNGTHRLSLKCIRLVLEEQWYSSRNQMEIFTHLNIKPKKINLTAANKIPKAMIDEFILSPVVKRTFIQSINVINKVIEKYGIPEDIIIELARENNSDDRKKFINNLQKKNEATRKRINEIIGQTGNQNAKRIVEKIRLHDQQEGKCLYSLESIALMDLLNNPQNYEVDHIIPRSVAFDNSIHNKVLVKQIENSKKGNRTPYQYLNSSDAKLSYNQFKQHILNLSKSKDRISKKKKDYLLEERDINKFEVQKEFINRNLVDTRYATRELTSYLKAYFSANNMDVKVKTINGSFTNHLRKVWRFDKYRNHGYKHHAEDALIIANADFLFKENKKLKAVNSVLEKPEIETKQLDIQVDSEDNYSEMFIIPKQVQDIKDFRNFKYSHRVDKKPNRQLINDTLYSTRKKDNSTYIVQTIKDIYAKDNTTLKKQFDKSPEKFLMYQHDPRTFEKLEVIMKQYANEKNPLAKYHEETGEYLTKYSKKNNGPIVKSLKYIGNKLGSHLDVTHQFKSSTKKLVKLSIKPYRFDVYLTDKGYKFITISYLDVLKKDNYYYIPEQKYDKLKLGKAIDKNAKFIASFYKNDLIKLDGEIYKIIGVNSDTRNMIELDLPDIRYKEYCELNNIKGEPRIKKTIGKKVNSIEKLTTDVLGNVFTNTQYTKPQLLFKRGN
Description: as §1, §2

Gib11Spa-1 sRGN = target: T4, Gib11Spa-1 sRGN (synthetic (Staphylococcus Cas9 chimera)); experiment: FP; cleavage; 5 mM MgCl2, 37 C; PAM GGGG on substrate
T4 chain: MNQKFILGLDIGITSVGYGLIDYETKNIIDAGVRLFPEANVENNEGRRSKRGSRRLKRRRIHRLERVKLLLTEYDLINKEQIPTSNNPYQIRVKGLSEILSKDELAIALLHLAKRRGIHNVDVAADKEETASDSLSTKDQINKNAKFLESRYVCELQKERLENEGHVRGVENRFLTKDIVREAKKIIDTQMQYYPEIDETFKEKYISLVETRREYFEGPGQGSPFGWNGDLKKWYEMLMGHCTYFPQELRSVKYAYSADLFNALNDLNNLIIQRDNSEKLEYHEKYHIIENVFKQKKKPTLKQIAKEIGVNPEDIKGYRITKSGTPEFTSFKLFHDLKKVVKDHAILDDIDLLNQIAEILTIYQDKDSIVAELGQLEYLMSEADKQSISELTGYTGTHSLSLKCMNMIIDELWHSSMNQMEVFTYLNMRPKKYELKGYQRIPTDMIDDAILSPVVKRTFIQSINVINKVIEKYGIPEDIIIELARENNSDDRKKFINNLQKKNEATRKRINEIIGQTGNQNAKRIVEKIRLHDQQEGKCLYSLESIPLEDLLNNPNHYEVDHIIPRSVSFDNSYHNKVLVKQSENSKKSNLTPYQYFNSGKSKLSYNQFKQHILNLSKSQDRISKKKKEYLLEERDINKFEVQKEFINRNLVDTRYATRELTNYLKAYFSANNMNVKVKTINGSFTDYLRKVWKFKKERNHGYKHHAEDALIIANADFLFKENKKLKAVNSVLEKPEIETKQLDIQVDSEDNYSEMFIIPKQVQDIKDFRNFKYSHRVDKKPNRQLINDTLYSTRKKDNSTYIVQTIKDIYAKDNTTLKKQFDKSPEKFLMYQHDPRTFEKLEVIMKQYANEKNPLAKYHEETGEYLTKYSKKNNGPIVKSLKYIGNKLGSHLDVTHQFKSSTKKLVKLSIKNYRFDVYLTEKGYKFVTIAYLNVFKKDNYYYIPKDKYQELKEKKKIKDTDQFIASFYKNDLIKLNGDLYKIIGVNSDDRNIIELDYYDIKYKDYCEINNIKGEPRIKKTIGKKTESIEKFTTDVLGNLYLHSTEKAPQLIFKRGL
Description: as §1, §2

Gib11Spa-3 sRGN = target: T5, Gib11Spa-3 sRGN (synthetic (Staphylococcus Cas9 chimera)); experiment: as above
T5 chain: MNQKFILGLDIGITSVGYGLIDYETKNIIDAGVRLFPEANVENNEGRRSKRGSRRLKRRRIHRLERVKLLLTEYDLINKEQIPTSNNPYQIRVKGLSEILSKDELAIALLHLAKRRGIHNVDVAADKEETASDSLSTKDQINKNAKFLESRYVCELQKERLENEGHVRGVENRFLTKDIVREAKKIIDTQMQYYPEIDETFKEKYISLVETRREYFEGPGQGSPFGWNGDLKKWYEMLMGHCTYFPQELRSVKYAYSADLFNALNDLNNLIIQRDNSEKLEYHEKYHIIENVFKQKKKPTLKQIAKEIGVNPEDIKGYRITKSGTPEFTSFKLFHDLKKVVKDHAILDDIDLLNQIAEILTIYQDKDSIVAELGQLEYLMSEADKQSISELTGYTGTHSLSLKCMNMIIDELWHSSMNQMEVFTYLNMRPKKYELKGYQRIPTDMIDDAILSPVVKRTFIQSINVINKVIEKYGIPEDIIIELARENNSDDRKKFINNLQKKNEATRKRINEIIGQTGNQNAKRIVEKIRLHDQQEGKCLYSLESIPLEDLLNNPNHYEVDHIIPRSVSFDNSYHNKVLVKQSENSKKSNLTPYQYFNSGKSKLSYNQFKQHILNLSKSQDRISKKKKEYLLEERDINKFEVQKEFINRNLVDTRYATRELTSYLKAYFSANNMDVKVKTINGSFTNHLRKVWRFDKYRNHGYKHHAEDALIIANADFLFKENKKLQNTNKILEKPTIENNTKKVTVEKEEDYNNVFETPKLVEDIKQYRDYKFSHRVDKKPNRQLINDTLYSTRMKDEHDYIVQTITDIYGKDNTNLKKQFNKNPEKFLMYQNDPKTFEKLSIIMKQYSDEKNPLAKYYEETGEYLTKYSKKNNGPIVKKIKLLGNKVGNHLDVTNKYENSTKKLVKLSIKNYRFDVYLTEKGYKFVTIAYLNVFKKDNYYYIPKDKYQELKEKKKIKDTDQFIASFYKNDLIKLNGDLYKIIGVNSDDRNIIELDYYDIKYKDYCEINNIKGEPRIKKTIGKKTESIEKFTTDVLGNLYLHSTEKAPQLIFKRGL
Description: as §1, §2

Measured: binding result

B1: sgRNA_Ex6 ; R01-1 on-target duplex (ssRNA ; dsDNA)
RNA: GGUGAACGUGGAUGAAGUUGGUUUUAGUACUCUGGAAACAGAAUCUACUGAAACAAGACAAUAUGUCGUGUUUAUCCCAUCAAUUUAUUGGUGGGAUUUUUUUCUAGCAUAACCCCUUGGGGCCUCUAAACGGGUCUUGAGGGGUUUUUU
DNA 1: GGTGAACGTGGATGAAGTTGTGGGGTAC
DNA 2: GCGGTACCCCACAACTTCATCCACGTTCACCGG
binds: all assays above

Source: patent US20210054353, “NOVEL RNA-PROGRAMMABLE ENDONUCLEASE SYSTEMS AND USES THEREOF” (CRISPR THERAPEUTICS AG, published 2021)
